Results published in patent publication US20250154235A1 (NEURIMMUNE, published 2025).
Values belong to the binder of their own block, whether it stands above or below them. Ends that are not written are not given here.

Assays:
[1] = target: T1, bovine serum albumin (BSA) (bovine, UniProt P02769 25-607); test: dot blot on nitrocellulose, NI-301.mur35G11 10 nM, anti-mouse IgG2a-HRP detection
T1 construct: Control antigen in the ELISA
Procedure: FIGS. 6A-6C: Absence of binding to human plasma TTR on dot blot. [0051] […] [0052] Samples 1-6:150 ng of 1) aggregated wt-TTR, 2) native wt-TTR, 3) BSA, 4) native V30M-TTR, 5) native L55P-TTR and 6) native Y78F-TTR. [0053] Samples 7-18:2 μl of plasma collected from 7-10) controls (n=4), 11-14) asymptomatic mutation carriers (n=4) and 15-18) FAP patients (n=4).

[2] = target: T1, bovine serum albumin (BSA); test: direct ELISA, BSA coated at 10 ug/ml
Procedure: (§1) The antibody capacity to bind TTR and/or misfolded, misassembled and/or aggregated forms of TTR was evaluated by means of direct ELISA assays at varying antibody concentrations. This allows to determinate for each antibody its half maximal effective concentration (EC50) in this assay, which is a commonly used proxy for the antibody binding affinity, see FIG. 2A-2C. […] Antibodies against TTR were diluted in PBS at 11 different concentrations ranging from 4 to 400 nM, and incubated in the ELISA plates overnight at 4° C. After 3 washes with PBS-T, ELISA plates were incubated with a HRP-coupled, human IgG-specific secondary antibody for 1 h at RT (1/4000 dilution). After 3 washes with PBS-T, the ELISA reactions were developed with TMB for exactly 10 min at RT and quantified by measuring the optical density at 450 nm (OD450 nm).
(§2) Subsequently, the antibody's EC50s were determined by fitting the data with a non-linear regression using the least square method in order to estimate the antibody binding affinity under these conditions.

[3] = target: mouse TTR protein contained in wild-type mouse liver extract (mouse, UniProt P07309 21-147); test: western blot, wild-type mouse liver extract 10 ug total protein
Procedure: FIGS. 4A-4D: Specificity for aggregated TTR on western blot. [0047] […] To prevent dissociation of the high molecular weight aggregates, the aggregated TTR sample was crosslinked with glutaraldehyde (1%, 5 min) prior to loading on the gel.
The binding specificity and selectivity of anti-TTR antibodies was evaluated by means of western blot, see FIG. 4A-4D. In brief, human wild-type TTR protein (300 ng) in native or misfolded-aggregated conformations, and wild-type mouse liver extract (10 μg total protein) were loaded on a SDS-PAGE gel and transferred onto a nitrocellulose membrane using a semi-dry transfer system. […] After 4 washes with PBS-T for 5 min at RT, the membrane was incubated with the appropriate secondary antibody (HRP-coupled; 1/10000 dilution in blocking buffer) for 1 h at RT. After 3 washes with PBS-T and a final one in PBS, the membrane was developed with luminol and the signal intensity quantified by measuring luminescence. Shortly before use, the misfolded-aggregated TTR sample was submitted to crosslinking with glutaraldehyde (1%, 5 min, 37° C.) to prevent the dissociation of TTR aggregates during the preparation process for SDS-PAGE. In contrast, the native TTR sample was not crosslinked before use, such that the TTR homotetramer (which is the native TTR conformation under physiological conditions) almost entirely dissociated into monomers and dimers.

[4] = target: T2, TTR 15-mer peptide GELHGLTTEEEFVEG (human, also: covalently bound to a membrane); test: pepscan membrane of 15-mer TTR peptides (peptides 13 and 14)
T2 peptide: GELHGLTTEEEFVEG
Procedure: (§3) Additional peptides including selected mutations were also plotted on the membrane. The membrane was blocked in Roti blocking buffer overnight at 4° C., incubated first with the anti-TTR antibody diluted in blocking buffer for 2 h at RT, then with an HRP-coupled anti human IgG antibody for 45 min at RT (dilution 1/20000 in TBS). The reaction was developed with luminol and imaged by luminescence.

[5] = target: T3, TTR 15-mer peptide TSESGELHGLTTEEE (human, also: covalently bound to a membrane); test: as above
T3 peptide: TSESGELHGLTTEEE
Procedure: as §3

[6] = target: T4, TTR 15-mer peptide WEPFASGKTSESGEL (human, also: covalently bound to a membrane); test: pepscan membrane of 15-mer TTR peptides (peptides 9, 10 and 11)
T4 peptide: WEPFASGKTSESGEL
Procedure: as §3

[7] = target: T5, TTR 15-mer peptide FRKAADDTWEPFASG (human, also: covalently bound to a membrane); test: as above
T5 peptide: FRKAADDTWEPFASG
Procedure: as §3

[8] = target: T6, TTR 15-mer peptide ADDTWEPFASGKTSE (human, also: covalently bound to a membrane); test: as above
T6 peptide: ADDTWEPFASGKTSE
Procedure: as §3

[9] = target: T7, TTR-E42G peptide sequence WGPFA (41-45) (human); test: pepscan membrane, mutant peptide
T7 construct: Present in a mutant 15-mer spot of the pepscan membrane
T7 peptide: WGPFA
Procedure: as §3

[10] = target: misfolded-aggregated recombinant V30M-TTR (human, UniProt P02766 21-147); test: direct ELISA, misfolded-aggregated recombinant V30M-TTR coated at 10 ug/ml
Procedure: as §1, §2

[11] = target: T8, TTR 15-mer peptide GLTTEEEFVEGIYKV (human, also: covalently bound to a membrane); test: pepscan membrane of 15-mer TTR peptides (peptides 15 and 16)
T8 peptide: GLTTEEEFVEGIYKV
Procedure: as §3

[12] = target: T9, TTR 15-mer peptide EEEFVEGIYKVEIDT (human, also: covalently bound to a membrane); test: as above
T9 peptide: EEEFVEGIYKVEIDT
Procedure: as §3

native TTR-L55P = native TTR-L55P (human, UniProt P02766 21-147); test: SPR (ProteOn XPR36), antibody captured by anti-human IgG-Fc, TTR in solution 3.2-316 nM, Langmuir 1:1 fit
Procedure: (§4) SPR analysis was performed on a BioRad ProteOn XPR36 fitted with a GLM sensor chip. An anti-human antibody directed against the Fc gamma domain was covalently coupled to the detection surface and saturated with the antibody under investigation. […] The antibody-antigen association was analyzed during 180 s and the dissociation during 600 s. A Langmuir binding model (simple 1:1 association) was used to fit the data and derive the association (ka) and dissociation (kd) constants, and the affinity (KD).
(§5) An anti-human IgG-Fcγ antibody was covalently coated on the detection surfaces, and used to capture the human TTR-specific antibodies.

[13] = target: T10, misfolded-aggregated human wild-type TTR (human, UniProt P02766 21-147); test: as above
Procedure: as §4, §5

native TTR-V30M = native TTR-V30M (human, UniProt P02766 21-147); test: as above
Procedure: as §4, §5

[14] = target: T10, misfolded-aggregated human wild-type TTR; test: direct ELISA, misfolded-aggregated human wild-type TTR coated at 10 ug/ml
Procedure: as §1, §2

T1 sequence (P02769 25-607 limits assumed): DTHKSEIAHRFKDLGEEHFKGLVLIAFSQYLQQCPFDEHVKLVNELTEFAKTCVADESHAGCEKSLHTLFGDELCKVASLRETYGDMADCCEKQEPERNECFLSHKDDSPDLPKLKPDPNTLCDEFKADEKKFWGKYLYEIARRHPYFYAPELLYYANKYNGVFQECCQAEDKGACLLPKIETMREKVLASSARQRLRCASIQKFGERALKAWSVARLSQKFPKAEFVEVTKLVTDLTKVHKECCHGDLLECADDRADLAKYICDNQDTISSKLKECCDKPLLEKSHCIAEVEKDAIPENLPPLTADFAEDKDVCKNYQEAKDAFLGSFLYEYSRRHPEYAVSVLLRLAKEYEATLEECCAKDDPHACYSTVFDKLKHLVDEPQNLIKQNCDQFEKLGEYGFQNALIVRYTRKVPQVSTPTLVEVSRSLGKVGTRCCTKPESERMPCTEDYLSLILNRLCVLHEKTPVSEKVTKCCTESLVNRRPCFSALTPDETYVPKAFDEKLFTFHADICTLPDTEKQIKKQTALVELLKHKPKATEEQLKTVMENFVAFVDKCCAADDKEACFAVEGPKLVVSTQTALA

binding result [1]: no binding (tested: 10 nM)
B1: mouse chimeric antibody NI-301.mur35G11 (antibody, V domains shown)
VH: EVQLVESGGGLVQPGGSLRLSCVASGFTFSSYAMSWVRQVPGKGLEWVSSISGSGDTTKYTDSVKGRFTISRDNSKNTVFLQMSSLRAEDTALYYCVKDGSGRIDPFALWGQGTMVTVSS
VL: EIVMTQSPLSLPVTLGQPASISCRSSRSLVYSDGNIYLNWFQQRPGQSPRRLIYKVSNRDSGVPDRFSGSGSDTDFTLRISRVEAEDVGVYYCMQGTHWPRTFGQGTKVEIK
notes: detected with anti-mouse IgG2a secondary antibody; also called murine chimeric anti-TTR antibody

binding result [2]: no binding (tested: up to 400 nM)
binding result [3]: no binding (tested: 50 nM)
binding result [4]: binds
binding result [5]: binds
B2: NI-301.35G11 (antibody, V domains shown)
VH: EVQLVESGGGLVQPGGSLRLSCVASGFTFSSYAMSWVRQVPGKGLEWVSSISGSGDTTKYTDSVKGRFTISRDNSKNTVFLQMSSLRAEDTALYYCVKDGSGRIDPFALWGQGTMVTVSS
VL: EIVMTQSPLSLPVTLGQPASISCRSSRSLVYSDGNIYLNWFQQRPGQSPRRLIYKVSNRDSGVPDRFSGSGSDTDFTLRISRVEAEDVGVYYCMQGTHWPRTFGQGTKVEIK
notes: also called NI.35G11

Second part, the binder before the results:

B3: NI-301.37F1 (antibody, V domains shown)
VH: QVQLQESGPGLVKPSETLSLTCSVSGGSIISRSSYWGWIRQPPGKGLEWIGGIYHSGNTYDNPSLKSRLTMSVDTSKNQFSLNLRSVTAADTAVYYCARIVPGGDAFDIWGQGTMVTVSS
VL: DIQMTQSPSSLSASVGDRVTIACRASQSVGTYLNWYQQKRGKAPKLLIFAASSLQSGVPSRFSGSGSGTDFTLTISSLQPEDFATYYCQQSYSSPPTFGQGTKVEIK
binding result [6]: binds
binding result [7]: binds
binding result [8]: binds
binding result [2]: no binding (tested: up to 400 nM)
binding result [3]: no binding (tested: 50 nM)
binding result [9]: no binding (tested: 50 nM)

B4: NI-301.59F1 (antibody, V domains shown)
VH: EVQLVESGGGLVQPGGSLRLSCVASGFTFSNYWMSWVRQAPGKGLEWVANINQDSEKYYVDSVKGRFAISRDNSKNSLYLQMNSLRVEDTGVYYCARDRYCSGGRCSRGNNWFDPWGQGTLVTVSS
VL: not shown
EC50 [10]: 15.5 nM
binding result [11]: binds
binding result [12]: binds
binding result [2]: no binding (tested: up to 400 nM)
binding result [3]: no binding (tested: 50 nM)
Kd (native TTR-L55P): 3.1 nM
koff (native TTR-L55P): 0.00015 s⁻¹
kon (native TTR-L55P): 51000 M⁻¹ s⁻¹
Kd [13]: 3.5 nM
koff [13]: 0.00034 s⁻¹
kon [13]: 97000 M⁻¹ s⁻¹
Kd (native TTR-V30M): 16 nM
koff (native TTR-V30M): 0.00022 s⁻¹
kon (native TTR-V30M): 13000 M⁻¹ s⁻¹
EC50 [14]: 3 nM
